Results published in patent US20040076995A1, “Nurr1 transcription factor 1-box mutants having monomeric transcriptional activation activity” (priority 2001, published 2004).

Key:
Nurr1-RXR heterodimer = assay: Nurr1-RXR heterodimer-mediated transactivation, βRE luciferase reporter in JEG3 cells; type: cell-based, human; settings: βRE-tk luciferase reporter, RXR ligand SR11237 1 μM, effect of the mutation vs wild-type Nurr1
Procedure: The wild-type and mutated Nurr1 derivatives were transfected in JEG3 cells. The ability to transactivate was assessed using a luciferase reporter gene driven by three copies of the hRARβ2 promoter RARE (βRE) upstream of a thymidine kinase promoter.
The influence of the I-box mutations on Nurr1 transcriptional activity and on the ability to interact with RXR was examined as described by Perlmann and Jansson 1995, Zetterström et al. 1996, and Castro et al. 1999. Nurr1-RXR heterodimer-mediated transactivation was studied in human chorion carcinoma JEG3 cells. The cells were maintained in minimum essential medium supplemented with 10% fetal calf serum. Transfections were performed in quadruplicates in 24-well plates using the calcium phosphate precipitation method. The cells were plated 24 h prior to the transfection. Each well was transfected with 100 ng of the expression vector for the Nurr1 variants, 100 ng of a reporter plasmid, and 200 ng of βgalactoside plasmid that was used as an internal control for transfection efficiency. The luciferase reporter used was driven by three copies of the retinoid acid response element (RARE) of the human retinoid acid receptorβ2 (hRARβ2) gene promoter (βRE) upstream of the thymidine kinase promoter. 6-8 hours after transfection, the cells received fresh medium supplemented with 10% charcoal-stripped fetal calf,serum and RXR ligand (SR11237;1 μM). The cells were harvested 24 hours late and lysed. The cells extracts were assayed for luciferase and βgalactosidase activity. The ability of the Nurr1 mutants to interact with RXR was examined using the mammalian two-hybrid assay. The ligand-binding domains (amino acids 353-598; LBD) of both wild-type and mutated Nurr1 variants were cloned in frame with the yeast Gal4 DNA-binding domain (amino acids 1-147) in the pCMX-Gal4 expression vector (Perlmann and Jansson 1995). JEG3 cells were cotransfected with pCMX-Gal4-Nurr1-LBD derivatives and pCMX-VP16-RXR containing the herpes simplex VP16 trans-activation domain followed by the complete coding sequence of human RXRα. A reporter gene with four copies of the Gal4-binding sites was used.

[1] = system: NGFI-B response element (NBRE) reporter; assay: Monomeric reporter gene activation, NBRE reporter in 293 cells (full-length receptor); type: cell-based, human; settings: three copies of NBRE reporter, effect of the mutation vs wild-type Nurr1
Procedure: The monomeric activity was examined in 293 cells. The full-length receptor derivatives were studied using a reporter gene regulated by three copies of the NGFI-B binding site (NBRE; FIG. A).
The ability of the mutants to activate reporter gene expression as monomers were studied in human embryonic kidney 293 cells. The cells were maintained in Dulbecco's modified Eagles medium with 10% fetal calf serum. Transfections were carried out as with JEG3 cells except that a reporter regulated by three copies of the NGFI-B (nerve growth factor inducible-B)response element (Wilson et al., 1991) (NBREs) was used. The transcriptional activities of the mutated ligand-binding domains were assessed as fusions to the Gal4 DNA-binding domain and a reporter gene with four copies of the Gal4-binding sites was used. All the transfection experiments were performed in quadruplicate dishes and each experiment has been repeated at least twice with essentially identical results. The results of a representative experiment are shown.

Row | Molecule | ability of Nurr1 to promote RXR-mediated transactivation (Nurr1-RXR heterodimer) | ability to activate reporter gene expression as monomers (monomeric activity) [1]
1 | KLL(554-556)AAA: mouse Nurr1 I-box mutant, residues Lys554-Leu555-Leu556 substituted by three alanines (protein) MPCVQAQYGSSPQGASPASQSYSYHSSGEYSSDFLTPEFVKFSMDLTNTEITATTSLPSFSTFMDNYSTGYDVKPPCLYQMPLSGQQSSIKVEDIQMHNYQQHSHLPPQSEEMMPHSGSVYYKPSSPPTPSTPSFQVQHSPMWDDPGSLHNFHQNYVATTHMIEQRKTPVSRLSLFSFKQSPPGTPVSSCQMRFDGPLHVPMNPEPAGSHHVVDGQTFAVPNPIRKPASMGFPGLQIGHASQLLDTQVPSPPSRGSPSNEGLCAVCGDNAACQHYGVRTCEGCKGFFKRTVQKNAKYVCLANKNCPVDKRRRNRCQYCRFQKCLAVGMVKEVVRTDSLKGRRGRLPSKPKSPQDPSPPSPPVSLISALVRAHVDSNPAMTSLDYSRFQANPDYQMSGDDTQHIQQFYDLLTGSMEIIRGWAEKIPGFADLPKADQDLLFESAFLELFVLRLAYRSNPVEGKLIFCNGVVLHRLQCVRGFGEWIDSIVEFSSNLQNMNIDISAFSCIAALAMVTERHGLKEPKRVEELQNKIVNCLKDHVTFNNGGLNRPNYLSAAAGKLPELRTLCTQGLQRIFYLKLEDLVPPPAIIDKLFLDTLPF | abolished | intact
2 | GKL(557-559)AAA: mouse Nurr1 I-box mutant, residues 557-559 (GKL) substituted by three alanines (protein) MPCVQAQYGSSPQGASPASQSYSYHSSGEYSSDFLTPEFVKFSMDLTNTEITATTSLPSFSTFMDNYSTGYDVKPPCLYQMPLSGQQSSIKVEDIQMHNYQQHSHLPPQSEEMMPHSGSVYYKPSSPPTPSTPSFQVQHSPMWDDPGSLHNFHQNYVATTHMIEQRKTPVSRLSLFSFKQSPPGTPVSSCQMRFDGPLHVPMNPEPAGSHHVVDGQTFAVPNPIRKPASMGFPGLQIGHASQLLDTQVPSPPSRGSPSNEGLCAVCGDNAACQHYGVRTCEGCKGFFKRTVQKNAKYVCLANKNCPVDKRRRNRCQYCRFQKCLAVGMVKEVVRTDSLKGRRGRLPSKPKSPQDPSPPSPPVSLISALVRAHVDSNPAMTSLDYSRFQANPDYQMSGDDTQHIQQFYDLLTGSMEIIRGWAEKIPGFADLPKADQDLLFESAFLELFVLRLAYRSNPVEGKLIFCNGVVLHRLQCVRGFGEWIDSIVEFSSNLQNMNIDISAFSCIAALAMVTERHGLKEPKRVEELQNKIVNCLKDHVTFNNGGLNRPNYLSKLLAAAPELRTLCTQGLQRIFYLKLEDLVPPPAIIDKLFLDTLPF | abolished | intact
3 | K558A: mouse Nurr1 I-box mutant, Lys558 substituted by alanine (protein) MPCVQAQYGSSPQGASPASQSYSYHSSGEYSSDFLTPEFVKFSMDLTNTEITATTSLPSFSTFMDNYSTGYDVKPPCLYQMPLSGQQSSIKVEDIQMHNYQQHSHLPPQSEEMMPHSGSVYYKPSSPPTPSTPSFQVQHSPMWDDPGSLHNFHQNYVATTHMIEQRKTPVSRLSLFSFKQSPPGTPVSSCQMRFDGPLHVPMNPEPAGSHHVVDGQTFAVPNPIRKPASMGFPGLQIGHASQLLDTQVPSPPSRGSPSNEGLCAVCGDNAACQHYGVRTCEGCKGFFKRTVQKNAKYVCLANKNCPVDKRRRNRCQYCRFQKCLAVGMVKEVVRTDSLKGRRGRLPSKPKSPQDPSPPSPPVSLISALVRAHVDSNPAMTSLDYSRFQANPDYQMSGDDTQHIQQFYDLLTGSMEIIRGWAEKIPGFADLPKADQDLLFESAFLELFVLRLAYRSNPVEGKLIFCNGVVLHRLQCVRGFGEWIDSIVEFSSNLQNMNIDISAFSCIAALAMVTERHGLKEPKRVEELQNKIVNCLKDHVTFNNGGLNRPNYLSKLLGALPELRTLCTQGLQRIFYLKLEDLVPPPAIIDKLFLDTLPF | only a modest effect | –
4 | E561A: mouse Nurr1 I-box mutant, Glu561 substituted by alanine (protein) MPCVQAQYGSSPQGASPASQSYSYHSSGEYSSDFLTPEFVKFSMDLTNTEITATTSLPSFSTFMDNYSTGYDVKPPCLYQMPLSGQQSSIKVEDIQMHNYQQHSHLPPQSEEMMPHSGSVYYKPSSPPTPSTPSFQVQHSPMWDDPGSLHNFHQNYVATTHMIEQRKTPVSRLSLFSFKQSPPGTPVSSCQMRFDGPLHVPMNPEPAGSHHVVDGQTFAVPNPIRKPASMGFPGLQIGHASQLLDTQVPSPPSRGSPSNEGLCAVCGDNAACQHYGVRTCEGCKGFFKRTVQKNAKYVCLANKNCPVDKRRRNRCQYCRFQKCLAVGMVKEVVRTDSLKGRRGRLPSKPKSPQDPSPPSPPVSLISALVRAHVDSNPAMTSLDYSRFQANPDYQMSGDDTQHIQQFYDLLTGSMEIIRGWAEKIPGFADLPKADQDLLFESAFLELFVLRLAYRSNPVEGKLIFCNGVVLHRLQCVRGFGEWIDSIVEFSSNLQNMNIDISAFSCIAALAMVTERHGLKEPKRVEELQNKIVNCLKDHVTFNNGGLNRPNYLSKLLGKLPALRTLCTQGLQRIFYLKLEDLVPPPAIIDKLFLDTLPF | no effect | –
5 | PEL(560-562.)AAA: mouse Nurr1 I-box mutant, residues 560-562 (PEL) substituted by three alanines (protein) MPCVQAQYGSSPQGASPASQSYSYHSSGEYSSDFLTPEFVKFSMDLTNTEITATTSLPSFSTFMDNYSTGYDVKPPCLYQMPLSGQQSSIKVEDIQMHNYQQHSHLPPQSEEMMPHSGSVYYKPSSPPTPSTPSFQVQHSPMWDDPGSLHNFHQNYVATTHMIEQRKTPVSRLSLFSFKQSPPGTPVSSCQMRFDGPLHVPMNPEPAGSHHVVDGQTFAVPNPIRKPASMGFPGLQIGHASQLLDTQVPSPPSRGSPSNEGLCAVCGDNAACQHYGVRTCEGCKGFFKRTVQKNAKYVCLANKNCPVDKRRRNRCQYCRFQKCLAVGMVKEVVRTDSLKGRRGRLPSKPKSPQDPSPPSPPVSLISALVRAHVDSNPAMTSLDYSRFQANPDYQMSGDDTQHIQQFYDLLTGSMEIIRGWAEKIPGFADLPKADQDLLFESAFLELFVLRLAYRSNPVEGKLIFCNGVVLHRLQCVRGFGEWIDSIVEFSSNLQNMNIDISAFSCIAALAMVTERHGLKEPKRVEELQNKIVNCLKDHVTFNNGGLNRPNYLSKLLGKLAAARTLCTQGLQRIFYLKLEDLVPPPAIIDKLFLDTLPF | abolished | intact
6 | L562A: mouse Nurr1 I-box mutant, Leu562 substituted by alanine (protein) MPCVQAQYGSSPQGASPASQSYSYHSSGEYSSDFLTPEFVKFSMDLTNTEITATTSLPSFSTFMDNYSTGYDVKPPCLYQMPLSGQQSSIKVEDIQMHNYQQHSHLPPQSEEMMPHSGSVYYKPSSPPTPSTPSFQVQHSPMWDDPGSLHNFHQNYVATTHMIEQRKTPVSRLSLFSFKQSPPGTPVSSCQMRFDGPLHVPMNPEPAGSHHVVDGQTFAVPNPIRKPASMGFPGLQIGHASQLLDTQVPSPPSRGSPSNEGLCAVCGDNAACQHYGVRTCEGCKGFFKRTVQKNAKYVCLANKNCPVDKRRRNRCQYCRFQKCLAVGMVKEVVRTDSLKGRRGRLPSKPKSPQDPSPPSPPVSLISALVRAHVDSNPAMTSLDYSRFQANPDYQMSGDDTQHIQQFYDLLTGSMEIIRGWAEKIPGFADLPKADQDLLFESAFLELFVLRLAYRSNPVEGKLIFCNGVVLHRLQCVRGFGEWIDSIVEFSSNLQNMNIDISAFSCIAALAMVTERHGLKEPKRVEELQNKIVNCLKDHVTFNNGGLNRPNYLSKLLGKLPEARTLCTQGLQRIFYLKLEDLVPPPAIIDKLFLDTLPF | reduced | –
